Consider 74 sequences from the supplement of paper PMC12636428.

The test system of the series is Saccharomyces cerevisiae. The series can be described thus: transcriptional activation domain activity (GFP:mCherry ratio, weighted mean of sorted bins, harmonized to initial dataset scale) (arbitrary fluorescence ratio units); higher = stronger transcriptional activation. Particulars: beta-estradiol 1 µM; induction time 4 h. In short, it runs like this: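 The listed activation activity is a read-weighted mean of bin median fluorescence, averaged across barcodes and linearly mapped onto the initial dataset scale. Barcoded tiles, fused to an estradiol-inducible synthetic transcription factor, were integrated at URA3 in yeast diploids bearing a GFP reporter. Cells were held 4 hours at 30 °C in SC with 1 uM beta-estradiol, sorted into 8 GFP:mCherry bins, and sequenced, and tiles with fewer than 50 reads were excluded.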

Consider “MAAIDHDKVAKFVGGNSLDKATPGDVTDFVRKNGGHTVITKVLIANNGIAAVK”, for which the “transcriptional activation domain activity” value worked out at 45000. With “MAALGGGKYFVCMLTQIVVNFCFLLSVPFSSPPLLLPCYLIIRYSFSFFLFCL”, the “transcriptional activation domain activity” value came out at 64700.

“MAALLWVLAVCLWIHPLSILAFTFHSVEGFKLVREILLDVLPTFDPHSYQIDG”: the “transcriptional activation domain activity” value was 53200. In the case of “MAAPPFLWTLFFFLFSILLLLSHTYFFLLLLACFFRFWFFYCSFYFSFDFLSS” it was 37900. Next, “MAASDGPSPKKRKFARAVNTCAPCARRKVKCDRESHAPCSNCRKRRETALCEP”: 9660.

Consider “MACCNQTWLYIPTNYYFAFLMFGISIVHVLFIQNQGFSRVIFFLFFAWDLFVS”, for which the “transcriptional activation domain activity” value was 84600. On to “MACLFPCMLIFIFLLFISSFFLCFFHSLVSHLPHCVLVLFFISFLLTILTFFF”, for which the “transcriptional activation domain activity” value was determined as 50200.

Take “MACLVSGIGWCLLYFTCMYLLLIYYILSLFYPPLASCNSFSFFFLSFFFFAGR”: the “transcriptional activation domain activity” value was found to be 59100. Next, “MADACGSNPGGKSVKDVRAEQESKRARGALSCAECRRLKLRCDKRVPCSSCQR”: 25400; “MADAITESTAKLQLDEETGEMVSKGELKKRLAKRAKKAAQAKAKAEAPAPLAT”: 36300; “MADALAENTAKLQLDEETGEMVSKGELKKRMAKRAKKAAAAKAKAEVPATTSA”: 20400.

For “MADATATGSTPPQAPLPEPKRHAACDECRLRKLKCSGTRPACERCAREHIACV”, the “transcriptional activation domain activity” value was found to be 40100. Next, “MADAVADAAANLKLEEGAAENAPKLQLDEETGEWVSKGELKKRLAKRAKKASK”: 14100; “MADAVAEGTAKLQLDEETGEMVSKGELKKRLQKRAKKAAQAKAKADAPAPSAA”: < 6570. In the case of “MADEEGASPRELILEACRRNNTSLLEETLADLASSASKAKQDPTGYVAKTLNE” it was 42600; in that of “MADEHAAHRRKRARLACLACNARRVKCNVAECRPCHNCAAANVPCETRESRRG”, 38300. In the case of “MADENNTAAAVGERNVPRQKQKRVFQTRARTGCQRCRARRRKCDEAKPRCARC” it was 35200; in that of “MADFVSIWLVVVVDYHFYIYIVFAREQLFRHFCLVSSALAVGLSLFWLMLCFG”, 68200. With “MADPQEDNTAPGTKRRRLRGSCDKCKQRKIRCDSSEMPGNRCSNCIAFSSECT”, the “transcriptional activation domain activity” value came out at 31600. As to “MADQPQGRKPNNRRPRHRGRGGGAGGGGNGGGNGGGEDGGNEGGRGGRRGGRG”, the “transcriptional activation domain activity” value amounted to 33900. Next, “MADRGTGAGGEGRGRGGFGRGGRGRGGPRGRGGRGGRGGRKDEEKEWVPVTKL”: 24800; “MADTSTDGGPERTPVAAPISIKACDQCRARKVRCDKTSPCANCRKHNVKCTTS”: 19000; “MADTTDPPAPRKRGRPPKNKEGGATAKPVTLGPDGLPRKRGRPRKNPVVEVAT”: 20300.

Regarding “MADVSSARINIDRAKQGRGLGRVATAGCSRDRILLIRSSHSVWRAACHLWAVP”, the “transcriptional activation domain activity” value is 60500.

For the sequence “MAEADQSSHHQPEPRRTHRKSRNGCVTCKQRRVKCDEGRPTCQKCSFGNRPCS”, the “transcriptional activation domain activity” value stood at 41900. For “MAEDSDPSADGGLPMPYSCYECRNRKLKCDRRKDGCSRCAQAGGKCHYPTSRK”, the “transcriptional activation domain activity” value is 48800.

Take “MAEEQPAKPKKHRAAKPKVSTGCVTCKQRRIKCGEEKPHCMRCVKTGRECGGY”: the “transcriptional activation domain activity” value is 41800. Next, “MAEKRATSTAPGPSTSLQRGKACLRCRKRKMRCDGSKPACQQCVRAKKADGCE”: 21500; “MAERNLTLFSSFFFFLLFFFFFFFFFLEDVFLFFLRMLFTFVGSWFFFFFSYL”: 7100; “MAETTTSDSGASSSTALQRGKACLRCRKRKMRCDGQKPACSQCVKARKTDACE”: 34100.

On to “MAFCSIPFYSPPPPQFRFISTFSPFPRFIIGPLFHPLLARKLFDFLLIFIVSF”, for which the “transcriptional activation domain activity” value turned out to be 62700.

For “MAFFYLCYIIISLVLYLFFLCSSFCCFMIHEFSLLSSLSQFSQRVYIGWSFFR”, the “transcriptional activation domain activity” value is 58300. For the sequence “MAFGAVLGLFICDADKVVRADGSRIILMKHPSWKTEIVGLWQTLIAEPWIIML”, the “transcriptional activation domain activity” value is 51400. In the case of “MAFKLSTAEKVYLALRLTLLTPFHILTSLIRSFILSLSRGLPPRLFWVCAVLR” it was 49500; in that of “MAFLYLELPLVGMTFGGGRRGWGFMYLFLFLSFSFFFIQLWFGLVWVMTLCEV”, 63600; in that of “MAGAVPVLMLILLLLSHLCTAFKFYSESGFALVRKILLTALPTFEPHHYQMDG”, 71600. For the sequence “MAGAVPVLMLILLQLSHLCTAFKFYSESGFALVRKILLTALPTFEPHHYQMDG”, the “transcriptional activation domain activity” value came to 64300.

Turning to “MAGDDEEGRDADGEPDNAATPAKRQRVSRACDQCRAARERCDGKPQCHPCVSQ”, the “transcriptional activation domain activity” value is 34100. Regarding “MAGENGGLGAFRDGSADGVGRGADLVSSLEQTRGYQMEMFQESLRRNIIVAMD”, the “transcriptional activation domain activity” value amounted to 62800. Next, “MAGIVTRVCLILCSPLFPLSLRNFIILHCVYLPLSNSWYISPPFLLYCLQTVY”: 62700. Turning to “MAGQNNPFVGAVFSGLFLGYMILAAALSIFFLLYFNRVFASIVSWGIRAWTWR”, the “transcriptional activation domain activity” value turned out to be 31200.

Turning to “MAGRKRAAAEDTTEKRETRSSKVAKTEGTKTAGKAAKGTARLKARLIISLTIL”, the “transcriptional activation domain activity” value was found to be 34500. In the case of “MAGSFFFSFFFLSLFMLFHFLSLSFLIFFFLSSLSSFAFLLLLISPFGPPNPH” it was 54400; in that of “MAGVGYYDLKQLMMVFLLVWLLAICVGPWYQGCFSPSFLLFCFYQPYIFISFL”, 52900. With “MAHLAYHPLYPLWDLLSHTLIMLIFLITLICLLCPFPSLFIFTPICLSVYLLI”, the “transcriptional activation domain activity” value is 27200. In the case of “MAHRFWTLQLFGNIYIIQFLGCIGFGLSLWILMHLINMIEVRNQTIQLSMLFA” it was 62800; in that of “MAIDCLALHIPTCVNLWGHVLYVQLVTVMYPSHFFFSFYFIFIFILFLFFLFF”, 14300; in that of “MAIDIFFCLAVHIPTCVNLWGHVRTILYVQLVTVMYPSHFLFYFLFLLFYFFL”, 34200. Next, “MAIFRIYVLIAVVRLGDILTDIYVVGGVLLLLRYQVFLMFFHFFFFLFFYTGL”: 43700; “MAIGLSACSILFLFSFTCVFFSFLSCLFLHPFFFLSFLFSLSLSLSLFFFFFA”: 66200; “MAIQAFFVICIIKILLYFLFFFFLFLSLLLYTYMYIHICAYVFYKIEKHVKSM”: 51000.

On to “MAITHAALPPMCRISLIRVWIETMLYGFNCVMYGLCMFIPVEGRLLLCWMLIV”, for which the “transcriptional activation domain activity” value was 50700. As for “MAIYEAASTPGSSAGSHADKPYHSKRPHRKSRKGCRTCKARKVKCDEVRPSCT”, the “transcriptional activation domain activity” value was found to be 27900.

For “MAKCIVTQTFLAASKTKTGYTIHQIRYTMTFWEIYENLLAIYLLIHPQWHLSF”, the “transcriptional activation domain activity” value was 40200. In the case of “MAKGGAKDKKSVEKKGADKGKGKSDEAADKGSKGKGGLKAATAVNVRHILCEK” it was 23500; in that of “MAKKASGSADKKTADKGDKKGKAKPTADDGEDKQSKGKGALKAATAVNVRHIL”, 44600; in that of “MAKKASGSAEKKGGDKADKKGKAKAKADDSDVEDKGSKGKGALKAATAVNVRH”, 9660. Next, “MAKKGSASTDKKAADKSDKKGKAKATTDDGEEKQAKGKGSLKAATAVNVRHIL”: 36900; “MAKLRELMKKLEEEVVGEDGEKRMVQPTIMQEPFRSFFRTAVSVYLPNVLGAK”: 52600; “MAKSDPHQPGRIRAFKPKVSTGCKTCKIRRVKCDEAKPACKRCSSTGRKCDGY”: 16300. Next, “MAKTRLIETIHTAFCIEFIYQYLIIGYGNPLVLAQIHWSVVCLLACTLLIVFL”: 55500. For “MALASPVFFFFYLYFIILLFGVGIYLFTFVMSYHTMVMQIIHVSCYNHRYIPV”, the “transcriptional activation domain activity” value was 47200. Next, “MALEFLMDDIHLNKFLLLGYGVISKFLIVCHRYSKVVGETYYVIHTGIFYLLG”: 56200; “MALEQRCQPTCEAVLLFLLLLFLPLWLLFERFKNLLLLLWPLFFFFFLLLLLW”: 35100; “MALFLGCIDFGQYKLNLEKYSGWLTIPLVPSEQALFYHTVKIIYSIFLHPLRN”: 66500.

As for “MALFLSIFLLFFFLLYLSQITHFHGILFCFFLLCAPCLYIPDSCNPLIQPLFP”, the “transcriptional activation domain activity” value worked out at 35300. Next, “MALFRALPLKIRNLIYLKLLNVSPLWISPIWIITDYYKERPIPLLKGLSLFLV”: 45400; “MALHALLHLLNVYYQGCLPYNVLVITVCTMLYKLFFSKSFYCRFRRFGRPWYL”: 54300; “MALIAFFLLFYLINLLYSLKLFLQYFFFTFTIPYLYIAYAFFFILYSLFLVFS”: 42900. Next, “MALKAREELEEIYGMPVIYIPVFISCMHRINAVLLSLGNFLLISGAYLRSSFV”: 53200. For the sequence “MALLSQVARLLGSFLCVAISCFGRLALLFLWLILAYFTFWSFFSGNLPICFCL”, the “transcriptional activation domain activity” value was found to be 59300. Next, “MALNLFQKEIFLILFLLFYYFAILLFCYFIILLFCYLIFLFFLFHLSLSSLIF”: 26300; “MALPKDRDEEKEDEKDNAPKKGKRGPRKRVSQACDRCRTRKDKCDGKKPSCST”: 20800; “MALPLHFRYVSVTFIFLASFFWPVGFFSFFSLFFPATNSFLLFLSAFFRLVLF”: 54100.
